Test results taken from PMC7617869 (Nature Structural & Molecular Biology, 2025).

Tests used:
Details in all cases: both partners purified
[1] = target: T1, His-tagged BRISC (wild type) (human, UniProt P46736 1-316; Q15018 1-415; Q9NXR7 1-383; Q9NWV8 1-329); assay: other fluorescence titration; spectral shift (Dianthus); labelled His–BRISC first incubated with 100 μM FX-171-C (1% DMSO) 15 min, then with SHMT2(A285T) 30 min at 25 °C
[2] = target: T1, His-tagged BRISC (wild type); assay: other fluorescence titration; spectral shift (Dianthus); labelled His–BRISC first incubated with 100 μM JMS-175-2 (1% DMSO) 15 min, then with SHMT2(A285T) 30 min at 25 °C
[3] = target: T1, His-tagged BRISC (wild type); assay: other fluorescence titration; spectral shift (Dianthus); 12.5 nM RED-Tris-NTA-labelled His–BRISC, SHMT2(A285T) 46 μM to 1.4 nM; 25 mM HEPES pH 7.5, 150 mM NaCl, 1 mM DTT, 0.005% Tween-20; 25 °C; no compound

B1: SHMT2ΔN(A285T) (residues 18–504) (enzyme)
chain: QLVRMAIRAQHSNAAQTQTGEANRGWTGQESLSDSDPEMWELLQREKDRQCRGLELIASENFCSRAALEALGSCLNNKYSEGYPGKRYYGGAEVVDEIELLCQRRALEAFDLDPAQWGVNVQPYSGSPANLAVYTALLQPHDRIMGLDLPDGGHLTHGYMSDVKRISATSIFFESMPYKLNPKTGLIDYNQLALTARLFRPRLIIAGTSAYARLIDYARMREVCDEVKAHLLADMAHISGLVAAKVIPSPFKHADIVTTTTHKTLRGTRSGLIFYRKGVKAVDPKTGREIPYTFEDRINFAVFPSLQGGPHNHAIAAVAVALKQACTPMFREYSLQVLKNARAMADALLERGYSLVSGGTDNHLVLVDLRPKGLDGARAERVLELVSITANKNTCPGDRSAITPGGLRLGAPALTSRQFREDDFRRVVDFIDEGVNIGLEVKSKTAKLQDFKSFLLKDSETSQRLANLRQRVEQFARAFPMPGFDEH
notes: serine hydroxymethyltransferase 2 (SHMT2), residues 18-504; also called SHMT2(A285T); serine hydroxymethyltransferase 2
With B1 the “KD after incubation of BRISC with FX-171-C” value [1] was 3600 ± 1800 nM, the “KD after incubation of BRISC with JMS-175-2” value [2] was 700 ± 300 nM and the Kd [3] was 400 ± 100 nM.
